Publication PMC314469, “Protein Interaction Networks by Proteome Peptide Scanning” (PLoS Biology, 2004)

T1: Boi1 SH3 (BOI1_YEAST), P38041
T1 chain: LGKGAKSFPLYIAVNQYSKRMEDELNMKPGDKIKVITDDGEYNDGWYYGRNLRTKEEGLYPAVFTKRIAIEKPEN

T2: Boi2 SH3 (BOI2_YEAST), P39969
T2 chain: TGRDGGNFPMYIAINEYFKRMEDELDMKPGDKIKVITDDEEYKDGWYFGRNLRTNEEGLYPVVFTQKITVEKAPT

T3: Myo5 SH3 (MYO5_YEAST), Q04439
T3 chain: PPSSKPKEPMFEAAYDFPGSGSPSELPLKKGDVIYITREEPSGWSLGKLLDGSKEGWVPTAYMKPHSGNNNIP

T4: Rvs167 SH3 (RV167_YEAST), P39743
T4 chain: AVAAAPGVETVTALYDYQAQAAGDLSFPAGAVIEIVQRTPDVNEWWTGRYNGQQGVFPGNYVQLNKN

T5: Yfr024 SH3 (LSB3_YEAST), P43603
T5 chain: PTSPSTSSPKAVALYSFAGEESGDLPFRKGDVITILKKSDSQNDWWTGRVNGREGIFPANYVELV

T6: Yhr016c SH3 (YSC84_YEAST), P32793
T6 chain: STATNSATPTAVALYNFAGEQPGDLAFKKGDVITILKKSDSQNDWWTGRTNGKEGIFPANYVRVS


Assays:
Test in all cases: SPOT array
[1] = target: T1, Boi1 SH3 (BOI1_YEAST), P38041
[2] = target: T2, Boi2 SH3 (BOI2_YEAST), P39969
[3] = target: T3, Myo5 SH3 (MYO5_YEAST), Q04439
[4] = target: T4, Rvs167 SH3 (RV167_YEAST), P39743
[5] = target: Sho1 SH3 (SHO1_YEAST), P40073
[6] = target: T5, Yfr024 SH3 (LSB3_YEAST), P43603
[7] = target: T6, Yhr016c SH3 (YSC84_YEAST), P32793

Chain of Sho1 SH3 (SHO1_YEAST), P40073 (P40073 295-366): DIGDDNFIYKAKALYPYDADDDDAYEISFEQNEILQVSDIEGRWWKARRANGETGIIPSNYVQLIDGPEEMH

Row | normalised SPOT signal, Boehringer light units (BLU); mean over the file's lines of this peptide [1] | normalised SPOT signal, Boehringer light units (BLU); mean over the file's lines of this peptide [2] | normalised SPOT signal, Boehringer light units (BLU); mean over the file's lines of this peptide [3] | normalised SPOT signal, Boehringer light units (BLU); mean over the file's lines of this peptide [4] | normalised SPOT signal, Boehringer light units (BLU); mean over the file's lines of this peptide [5] | normalised SPOT signal, Boehringer light units (BLU); mean over the file's lines of this peptide [6] | normalised SPOT signal, Boehringer light units (BLU); mean over the file's lines of this peptide [7] | Binder
1 | 198 | 20 | 219 | 40.4 | 70.4 | 104 | 29.7 | KYSFKLVPPQPGSK [YBL085W 849-862]
2 | 127 | 23.8 | 434 | 95.8 | 31.3 | 44.7 | 32.1 | KVSSKYDPDNPNKD [YBR235W 48-61]
3 | 1120 | 24.3 | 503 | 160 | 119 | 234 | 44.4 | KVNFRRIPTGPDSP [YIL131C 136-149]
4 | 84.2 | 3.7 | 167 | 72.7 | 6.5 | 162 | 43.6 | KTSTKAQPAEPQAE [YNL071W 132-145]
5 | 129 | 29.6 | 466 | 56.2 | 140 | 171 | 26.1 | KTGRKTFPFLPYQI [YGL012W 364-377]
6 | 815 | 0 | 245 | 112 | 38.8 | 134 | 50.8 | KSLQKFEPRYPKTA [YMR014W 24-37]
7 | 613 | 5.4 | 343 | 39.9 | 46.8 | 62.6 | 27.5 | KSIPRTKPNVPPLQ [YDR466W 448-461]
8 | 78.2 | 0 | 103 | 56 | 29 | 94.7 | 9.6 | KSYRKADPTNPQGW [YBR055C 231-244]
9 | 457 | 0 | 496 | 200 | 49.9 | 180 | 8.7 | KVIRKGSPKSPAMV [YKL170W 23-36]

Second part, the binder before the results:

Row | Binder | normalised SPOT signal, Boehringer light units (BLU); mean over the file's lines of this peptide [1] | normalised SPOT signal, Boehringer light units (BLU); mean over the file's lines of this peptide [2] | normalised SPOT signal, Boehringer light units (BLU); mean over the file's lines of this peptide [3] | normalised SPOT signal, Boehringer light units (BLU); mean over the file's lines of this peptide [4] | normalised SPOT signal, Boehringer light units (BLU); mean over the file's lines of this peptide [5] | normalised SPOT signal, Boehringer light units (BLU); mean over the file's lines of this peptide [6] | normalised SPOT signal, Boehringer light units (BLU); mean over the file's lines of this peptide [7]
10 | KTKKKTVPVKPLQL [YBL017C 684-697] | 1240 | 67.6 | 359 | 44.3 | 34.1 | 179 | 38
11 | LAAHKTKPSIPPKK [YPR171W 350-363] | 477 | 18.8 | 249 | 16.5 | 76.5 | 1730 | 36
12 | KTRNKPKPLWPQVK [YGR033C 56-69] | 1200 | 43.4 | 262 | 56.8 | 115 | 178 | 35
13 | KVLIKTLPVLPEAR [YNL271C 1679-1692] | 142 | 5.4 | 237 | 84.2 | 3050 | 251 | 0
14 | KTVDKGLPMIPTYV [YDR516C 56-69] | 14.3 | 5 | 76.8 | 24.1 | 8310 | 11.9 | 20.1
15 | KVQIKKVPTDPSSS [YBR136W 25-38] | 1460 | 64.7 | 191 | 44.5 | 28.2 | 9.9 | 13.5
16 | KYIIKTEPESPEED [YLR133W 510-523] | 100 | 39.6 | 246 | 34 | 55.5 | 6.9 | 34.1
